The text below walks through data of ChEMBL document CHEMBL2074447, “Transport of monoglucuronosyl and bisglucuronosyl bilirubin by recombinant human and rat multidrug resistance protein 2” (Hepatology, 1999).

What all share (type): functional, cell membranes, HEK293, Membrane vesicle
Substrate in series [1]: C=CC1=C(C)/C(=C/c2[nH]c(Cc3[nH]c(/C=C4\NC(=O)C(C)=C4C=C)c(C)c3CCC(=O)O[C@@H]3OC(C(=O)O)[C@@H](O)C(O)C3O)c(CCC(=O)O)c2C)NC1=O
In words: (§1) TP_TRANSPORTER: uptake in membrane vesicles from MRP2-expressing HEK cells.

Substrate in series [2]: C=CC1=C(C)/C(=C/c2[nH]c(Cc3[nH]c(/C=C4\NC(=O)C(C)=C4C=C)c(C)c3CCC(=O)O[C@@H]3O[C@@H](C(=O)O)[C@H](O)[C@@H](O)[C@@H]3O)c(CCC(=O)O[C@@H]3O[C@H](C(=O)O)[C@H](O)[C@H](O)[C@@H]3O)c2C)NC1=O
The series is described as §1.

Substrate in series [3]: C=CC1=C(C)/C(=C/c2[nH]c(Cc3[nH]c(/C=C4\NC(=O)C(C)=C4C=C)c(C)c3CCC(=O)O[C@@H]3OC(C(=O)O)[C@@H](O)C(O)C3O)c(CCC(=O)O)c2C)NC1=O
In words: (§2) TP_TRANSPORTER: uptake in membrane vesicles from Mrp2-expressing HEK cells.

Substrate in series [4]: C=CC1=C(C)/C(=C/c2[nH]c(Cc3[nH]c(/C=C4\NC(=O)C(C)=C4C=C)c(C)c3CCC(=O)O[C@@H]3O[C@@H](C(=O)O)[C@H](O)[C@@H](O)[C@@H]3O)c(CCC(=O)O[C@@H]3O[C@H](C(=O)O)[C@H](O)[C@H](O)[C@@H]3O)c2C)NC1=O
Described as §2.

B1: ATP-binding cassette sub-family C member 2 (Homo sapiens) (protein)
chain: MLEKFCNSTFWNSSFLDSPEADLPLCFEQTVLVWIPLGYLWLLAPWQLLHVYKSRTKRSSTTKLYLAKQVFVGFLLILAAIELALVLTEDSGQATVPAVRYTNPSLYLGTWLLVLLIQYSRQWCVQKNSWFLSLFWILSILCGTFQFQTLIRTLLQGDNSNLAYSCLFFISYGFQILILIFSAFSENNESSNNPSSIASFLSSITYSWYDSIILKGYKRPLTLEDVWEVDEEMKTKTLVSKFETHMKRELQKARRALQRRQEKSSQQNSGARLPGLNKNQSQSQDALVLEDVEKKKKKSGTKKDVPKSWLMKALFKTFYMVLLKSFLLKLVNDIFTFVSPQLLKLLISFASDRDTYLWIGYLCAILLFTAALIQSFCLQCYFQLCFKLGVKVRTAIMASVYKKALTLSNLARKEYTVGETVNLMSVDAQKLMDVTNFMHMLWSSVLQIVLSIFFLWRELGPSVLAGVGVMVLVIPINAILSTKSKTIQVKNMKNKDKRLKIMNEILSGIKILKYFAWEPSFRDQVQNLRKKELKNLLAFSQLQCVVIFVFQLTPVLVSVVTFSVYVLVDSNNILDAQKAFTSITLFNILRFPLSMLPMMISSMLQASVSTERLEKYLGGDDLDTSAIRHDCNFDKAMQFSEASFTWEHDSEATVRDVNLDIMAGQLVAVIGPVGSGKSSLISAMLGEMENVHGHITIKGTTAYVPQQSWIQNGTIKDNILFGTEFNEKRYQQVLEACALLPDLEMLPGGDLAEIGEKGINLSGGQKQRISLARATYQNLDIYLLDDPLSAVDAHVGKHIFNKVLGPNGLLKGKTRLLVTHSMHFLPQVDEIVVLGNGTIVEKGSYSALLAKKGEFAKNLKTFLRHTGPEEEATVHDGSEEEDDDYGLISSVEEIPEDAASITMRRENSFRRTLSRSSRSNGRHLKSLRNSLKTRNVNSLKEDEELVKGQKLIKKEFIETGKVKFSIYLEYLQAIGLFSIFFIILAFVMNSVAFIGSNLWLSAWTSDSKIFNSTDYPASQRDMRVGVYGALGLAQGIFVFIAHFWSAFGFVHASNILHKQLLNNILRAPMRFFDTTPTGRIVNRFAGDISTVDDTLPQSLRSWITCFLGIISTLVMICMATPVFTIIVIPLGIIYVSVQMFYVSTSRQLRRLDSVTRSPIYSHFSETVSGLPVIRAFEHQQRFLKHNEVRIDTNQKCVFSWITSNRWLAIRLELVGNLTVFFSALMMVIYRDTLSGDTVGFVLSNALNITQTLNWLVRMTSEIETNIVAVERITEYTKVENEAPWVTDKRPPPDWPSKGKIQFNNYQVRYRPELDLVLRGITCDIGSMEKIGVVGRTGAGKSSLTNCLFRILEAAGGQIIIDGVDIASIGLHDLREKLTIIPQDPILFSGSLRMNLDPFNNYSDEEIWKALELAHLKSFVASLQLGLSHEVTEAGGNLSIGQRQLLCLGRALLRKSKILVLDEATAAVDLETDNLIQTTIQNEFAHCTVITIAHRLHTIMDSDKVMVLDNGKIIECGSPEELLQIPGPFYFMAKEAGIENVNSTKF
In the case of B1, the Km amounted to 0.7 µM in series [1] and 0.9 µM in series [2].

B2: ATP-binding cassette sub-family C member 2 (Rattus norvegicus) (protein)
chain: MDKFCNSTFWDLSLLESPEADLPLCFEQTVLVWIPLGFLWLLAPWQLYSVYRSRTKRSSITKFYLAKQVFVVFLLILAAIDLSLALTEDTGQATVPPVRYTNPILYLCTWLLVLAVQHSRQWCVRKNSWFLSLFWILSVLCGVFQFQTLIRALLKDSKSNMAYSYLFFVSYGFQIVLLILTAFSGPSDSTQTPSVTASFLSSITFSWYDRTVLKGYKHPLTLEDVWDIDEGFKTRSVTSKFEAAMTKDLQKARQAFQRRLQKSQRKPEATLHGLNKKQSQSQDVLVLEEAKKKSEKTTKDYPKSWLIKSLFKTFHVVILKSFILKLIHDLLVFLNPQLLKLLIGFVKSSNSYVWFGYICAILMFAVTLIQSFCLQSYFQHCFVLGMCVRTTVMSSIYKKALTLSNLARKQYTIGETVNLMSVDSQKLMDATNYMQLVWSSVIQITLSIFFLWRELGPSILAGVGVMVLLIPVNGVLATKIRNIQVQNMKNKDKRLKIMNEILSGIKILKYFAWEPSFQEQVQGIRKKELKNLLRFGQLQSLLIFILQITPILVSVVTFSVYVLVDSANVLNAEKAFTSITLFNILRFPLSMLPMVTSSILQASVSVDRLERYLGGDDLDTSAIRRVSNFDKAVKFSEASFTWDPDLEATIQDVNLDIKPGQLVAVVGTVGSGKSSLVSAMLGEMENVHGHITIQGSTAYVPQQSWIQNGTIKDNILFGSEYNEKKYQQVLKACALLPDLEILPGGDMAEIGEKGINLSGGQKQRVSLARAAYQDADIYILDDPLSAVDAHVGKHIFNKVVGPNGLLAGKTRIFVTHGIHFLPQVDEIVVLGKGTILEKGSYRDLLDKKGVFARNWKTFMKHSGPEGEATVNNDSEAEDDDDGLIPTMEEIPEDAASLAMRRENSLRRTLSRSSRSSSRRGKSLKNSLKIKNVNVLKEKEKEVEGQKLIKKEFVETGKVKFSIYLKYLQAVGWWSILFIILFYGLNNVAFIGSNLWLSAWTSDSDNLNGTNNSSSHRDMRIGVFGALGLAQGICLLISTLWSIYACRNASKALHGQLLTNILRAPMRFFDTTPTGRIVNRFSGDISTVDDLLPQTLRSWMMCFFGIAGTLVMICMATPVFAIIIIPLSILYISVQVFYVATSRQLRRLDSVTKSPIYSHFSETVTGLPIIRAFEHQQRFLAWNEKQIDINQKCVFSWITSNRWLAIRLELVGNLVVFCSALLLVIYRKTLTGDVVGFVLSNALNITQTLNWLVRMTSEAETNIVAVERISEYINVENEAPWVTDKRPPADWPRHGEIQFNNYQVRYRPELDLVLKGITCNIKSGEKVGVVGRTGAGKSSLTNCLFRILESAGGQIIIDGIDVASIGLHDLRERLTIIPQDPILFSGSLRMNLDPFNKYSDEEVWRALELAHLRSFVSGLQLGLLSEVTEGGDNLSIGQRQLLCLGRAVLRKSKILVLDEATAAVDLETDSLIQTTIRKEFSQCTVITIAHRLHTIMDSDKIMVLDNGKIVEYGSPEELLSNRGSFYLMAKEAGIENVNHTEL
On to B2, for which the Michaelis-Menten constant (Km) worked out at 0.8 µM in series [3] and 0.5 µM in series [4].

Usually Km stands for the concentration of substrate that gives half-maximal velocity.
